One assay concerns the target IL-18 (Homo sapiens) (UniProt Q14116). Particulars: cited from earlier work.
The target in assay [1] is IL-18 receptor on NK-92MI cells (human (endogenous in NK-92MI)) (UniProt Q13478).
IL-18 receptor on NK-92MI cells (human (endogenous in NK-92MI)), sequence (Q13478 19-541, chain 1 of 2): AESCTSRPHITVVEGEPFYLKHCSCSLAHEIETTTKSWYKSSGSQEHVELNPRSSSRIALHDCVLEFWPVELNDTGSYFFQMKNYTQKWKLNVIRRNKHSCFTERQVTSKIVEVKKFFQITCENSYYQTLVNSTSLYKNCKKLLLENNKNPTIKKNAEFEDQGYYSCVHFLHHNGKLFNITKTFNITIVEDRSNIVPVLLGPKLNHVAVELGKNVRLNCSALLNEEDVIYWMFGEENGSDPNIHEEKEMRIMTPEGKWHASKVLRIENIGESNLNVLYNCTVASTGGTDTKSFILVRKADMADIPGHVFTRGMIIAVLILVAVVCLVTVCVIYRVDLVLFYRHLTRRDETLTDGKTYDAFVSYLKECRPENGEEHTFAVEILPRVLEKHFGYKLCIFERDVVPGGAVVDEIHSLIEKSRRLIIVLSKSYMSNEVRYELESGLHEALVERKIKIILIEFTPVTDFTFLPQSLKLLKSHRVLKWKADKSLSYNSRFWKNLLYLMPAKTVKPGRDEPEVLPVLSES
IL-18 receptor on NK-92MI cells (human (endogenous in NK-92MI)), sequence (O95256 20-599, chain 2 of 2, further chain): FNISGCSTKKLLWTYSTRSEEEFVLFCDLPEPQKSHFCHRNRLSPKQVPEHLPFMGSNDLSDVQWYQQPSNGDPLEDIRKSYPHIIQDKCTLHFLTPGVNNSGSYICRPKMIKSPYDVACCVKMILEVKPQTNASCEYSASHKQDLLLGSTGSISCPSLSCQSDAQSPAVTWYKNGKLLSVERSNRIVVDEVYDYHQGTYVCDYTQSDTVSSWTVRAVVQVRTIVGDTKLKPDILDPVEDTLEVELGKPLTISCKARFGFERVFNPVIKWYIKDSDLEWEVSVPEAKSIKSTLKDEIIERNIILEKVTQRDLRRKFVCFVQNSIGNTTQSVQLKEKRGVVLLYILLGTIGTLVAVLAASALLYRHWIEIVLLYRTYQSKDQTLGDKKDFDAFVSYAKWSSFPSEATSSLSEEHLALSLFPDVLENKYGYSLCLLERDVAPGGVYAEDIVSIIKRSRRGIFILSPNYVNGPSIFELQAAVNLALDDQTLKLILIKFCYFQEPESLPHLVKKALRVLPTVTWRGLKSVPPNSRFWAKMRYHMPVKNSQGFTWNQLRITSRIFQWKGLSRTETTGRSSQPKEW

IL-18BP, sequence (O95998 31-194): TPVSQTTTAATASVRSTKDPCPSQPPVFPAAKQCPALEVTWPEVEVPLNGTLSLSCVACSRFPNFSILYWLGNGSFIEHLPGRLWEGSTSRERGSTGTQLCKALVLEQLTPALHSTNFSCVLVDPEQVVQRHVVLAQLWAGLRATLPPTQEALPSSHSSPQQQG
IL-18 (Homo sapiens), sequence (Q14116 37-193): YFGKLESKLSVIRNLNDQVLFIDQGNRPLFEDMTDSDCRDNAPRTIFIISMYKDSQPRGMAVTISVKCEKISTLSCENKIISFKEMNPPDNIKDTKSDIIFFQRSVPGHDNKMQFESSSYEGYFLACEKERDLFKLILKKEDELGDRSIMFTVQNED

Regarding IL-18BP (from UniProt O95998), in the assay with IL-18 (Homo sapiens), the Kd was 0.4 nM. Turning to “recombinant mature human interleukin-18 E6K (ligand)”, the IFN-γ in the supernatant (ELISA) of NK-92MI cells stimulated with 0.5 ng/ml IL-12 and 12.5-200 ng mL^-1 IL-18; activity against wild-type IL-18 at 200 ng mL^-1 (times higher than wild-type IL-18) in assay [1] was determined as 9.3.

Take “recombinant mature human interleukin-18 T63A (ligand)”: the IFN-γ in the supernatant (ELISA) of NK-92MI cells stimulated with 0.5 ng/ml IL-12 and 12.5-200 ng mL^-1 IL-18; activity against wild-type IL-18 at 200 ng mL^-1 (times higher than wild-type IL-18) in assay [1] was determined as 3.9.

By Kd is commonly meant the concentration at which binding is half-saturated.
